Measured values taken from PMC6949303.

How the values were obtained:
[1] = biological target: Biotinylated JW8-IgE (human); experiment: ELISA; FcεRIα immobilised at 30 nM; biotinylated JW8-IgE titrated (60–0.001 nM) or 0.78 nM pre-incubated 30 min with anti-IgE antibodies (0.0078–600 nM); streptavidin-HRP
[2] = biological target: Human monoclonal Sus11-IgE (human); experiment: SPR; Biacore X100, CM5 chip, HBS-EP+, 10 μl/min; anti-IgE Le27 immobilised (3000 RU), 30 nM Sus11-IgE captured (~100 RU); 1.56–25 nM antibodies/fragments injected 120 s, dissociation 240 s; 1:1 langmuir fit

fold higher potency than omalizumab in inhibiting IgE binding to FcεRIα [1] | Kd [2] | koff [2] | kon [2] | Binder
20 fold | 0.0178 nM | 3.3e-05 s⁻¹ | 1.8e+06 M⁻¹ s⁻¹ | Ligelizumab IgG (antibody, V domains shown) VH: QVQLVQSGAEVMKPGSSVKVSCKASGYTFSWYWLEWVRQAPGHGLEWMGEIDPGTFTTNYNEKFKARVTFTADTSTSTAYMELSSLRSEDTAVYYCARFSHFSGSNYDYFDYWGQGTLVTVSS VL: EIVMTQSPATLSVSPGERATLSCRASQSIGTNIHWYQQKPGQAPRLLIYYASESISGIPARFSGSGSGTEFTLTISSLQSEDFAVYYCQQSWSWPTTFGGGTKVEIK
– | 0.035 nM | 0.00032 s⁻¹ | 9.2e+06 M⁻¹ s⁻¹ | Ligelizumab Fab (Fab, V domains shown) VH: QVQLVQSGAEVMKPGSSVKVSCKASGYTFSWYWLEWVRQAPGHGLEWMGEIDPGTFTTNYNEKFKARVTFTADTSTSTAYMELSSLRSEDTAVYYCARFSHFSGSNYDYFDYWGQGTLVTVSS VL: EIVMTQSPATLSVSPGERATLSCRASQSIGTNIHWYQQKPGQAPRLLIYYASESISGIPARFSGSGSGTEFTLTISSLQSEDFAVYYCQQSWSWPTTFGGGTKVEIK
– | 0.0121 nM | 5.1e-05 s⁻¹ | 4.2e+06 M⁻¹ s⁻¹ | Ligelizumab F(ab′)2 (protein) VH: QVQLVQSGAEVMKPGSSVKVSCKASGYTFSWYWLEWVRQAPGHGLEWMGEIDPGTFTTNYNEKFKARVTFTADTSTSTAYMELSSLRSEDTAVYYCARFSHFSGSNYDYFDYWGQGTLVTVSS VL: EIVMTQSPATLSVSPGERATLSCRASQSIGTNIHWYQQKPGQAPRLLIYYASESISGIPARFSGSGSGTEFTLTISSLQSEDFAVYYCQQSWSWPTTFGGGTKVEIK
